For this assay, the target named is Protein Interacting with C Kinase-1 (PICK1), Q9EP80. Nature of the assay: FP competition, PICK1 0.15 µM, tracer PEG4 linked dimeric C5 20 nM.

One molecule from US20220033450A1, “VIRALLY EXPRESSED INHIBITORS OF PDZ DOMAINS, SUCH AS PICK1 AND USES THEREOF” (University of Copenhagen, priority 2018, published 2022) can be followed below.

Sequence of Protein Interacting with C Kinase-1 (PICK1), Q9EP80 (Q9EP80 whole entry): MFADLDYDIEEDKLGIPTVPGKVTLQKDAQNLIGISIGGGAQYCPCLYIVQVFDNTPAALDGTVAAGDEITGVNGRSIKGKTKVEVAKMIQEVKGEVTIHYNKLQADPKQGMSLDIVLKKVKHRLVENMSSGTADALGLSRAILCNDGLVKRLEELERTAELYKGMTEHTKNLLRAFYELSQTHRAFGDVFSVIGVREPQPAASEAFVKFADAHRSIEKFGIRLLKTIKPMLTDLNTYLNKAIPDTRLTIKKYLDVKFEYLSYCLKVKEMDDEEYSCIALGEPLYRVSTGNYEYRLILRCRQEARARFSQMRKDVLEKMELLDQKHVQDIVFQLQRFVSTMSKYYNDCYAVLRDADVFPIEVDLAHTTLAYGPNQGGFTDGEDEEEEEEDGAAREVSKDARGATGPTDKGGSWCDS

For the molecule GEELLEDIRKFNEMRKNMDQLKEKINSVLSIRQGGGGSHWLKV (designed binder, modifications not checked) [SSO10a-GS4-HWLKV], the fold increase in affinity over DATC5 came to 16 fold.
